Consider 116 sequences from the supplement of paper PMC10724198.

± gives the standard deviation of the averaged measurements.
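Also: PSI is a weighted mean of sequencing reads over stability bins, variants kept only with over 10 reads, mCherry proximal and sfGFP distal, peptide attached via GGGS linker.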

For the series, the system named is Saccharomyces cerevisiae. Put plainly: protein stability index of tFT-peptide fusion (C-terminal peptide) (PSI (0-1 scale)); higher = more stable (slower turnover). Conditions: genetic background: wild type; temperature: 30 C. On the procedure:
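Multiplexed protein stability (MPS) profiling in S. cerevisiae. Random 12-aa peptides (tFT-X12 library) are fused to the C-terminus of a sfGFP-mCherry tandem fluorescent timer, after mCherry and a GGGS linker. Cells are FACS-sorted into 8 mCherry/sfGFP bins and deep-sequenced. The protein stability index (PSI) is the read-weighted bin average, scaled from 0 (unstable) to 1 (stable). Only peptides with >10 reads are reported; cells were grown at 30 °C in SC-His with glucose.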
With GGALNGVGNGEL, the protein stability index came to 0.67 ± 0.053.

In the case of GGARGLLRGLLG, the protein stability index is 0.755 ± 0.085.

Regarding GGCDVCGVQWIG, the protein stability index came out at 0.73 ± 0.054.

As to GGCGAKWLSGGG, the protein stability index is 0.64 ± 0.025.

As for GGCSGGNGGCDG, the protein stability index turned out to be 0.678 ± 0.028.

GGDDKREPGGAR: the protein stability index worked out at 0.6603 ± 0.0025.

Turning to GGDFYEGVKNGK, the protein stability index was 0.714 ± 0.11.

Take GGELVKGWGSRV: the protein stability index was 0.678 ± 0.072.

GGETGGRWHKKQ returned a protein stability index of 0.672 ± 0.069.

For GGEWGDRRKSGV, the protein stability index was found to be 0.647 ± 0.059.

In the case of GGFCRLRYLVCP, the protein stability index came out at 0.544 ± 0.039.

The sequence GGFTAPLVLSPR displayed a protein stability index of 0.686 ± 0.071.

The sequence GGGAADGGGGRG came in with a protein stability index of 0.646 ± 0.059.

GGGAGERMRDGR displayed a protein stability index of 0.67 ± 0.026.

GGGARSPSGCAN displayed a protein stability index of 0.712 ± 0.019.

GGGERFGLGGRM had a protein stability index of 0.659 ± 0.049.

In the case of GGGFVGGTVAAV, the protein stability index is 0.725 ± 0.011.

The sequence GGGGAAGWGAVG displayed a protein stability index of 0.688 ± 0.015.

With GGGGALGRVWPG, the protein stability index turned out to be 0.685 ± 0.02.

For GGGGAVRAWGLR, the protein stability index turned out to be 0.736 ± 0.019.

Turning to GGGGEAWGGLRW, the protein stability index was 0.775 ± 0.055.

With GGGGERGGVKRG, the protein stability index is 0.663 ± 0.02.

For GGGGGASMSGTP, the protein stability index was determined as 0.687 ± 0.017.

GGGGGCGVAGGV yielded a protein stability index of 0.71 ± 0.026.

Consider GGGGGFAPGVTG, for which the protein stability index was determined as 0.698 ± 0.046.

Regarding GGGGGFGVVRVG, the protein stability index was 0.651 ± 0.032.

As to GGGGGGFRVVVG, the protein stability index is 0.705 ± 0.03.

GGGGGGGEWVGG displayed a protein stability index of 0.656 ± 0.05.

With GGGGGGGGGGGG, the protein stability index was found to be 0.65 ± 0.04.

GGGGGGGGRRPG had a protein stability index of 0.616 ± 0.0097.

On to GGGGGGGGSSCA, for which the protein stability index came to 0.685 ± 0.067.

GGGGGGGGVVVR returned a protein stability index of 0.686 ± 0.016.

GGGGGGLVGQGD came in with a protein stability index of 0.673 ± 0.017.

In the case of GGGGGGWGGGVG, the protein stability index was determined as 0.665 ± 0.021.

On to GGGGGNAGSHLG, for which the protein stability index stood at 0.673 ± 0.018.

GGGGGRGGVVVR: the protein stability index worked out at 0.682 ± 0.014.

The sequence GGGGGRSSPGGS displayed a protein stability index of 0.678 ± 0.073.

Take GGGGGWGGAGGV: the protein stability index stood at 0.737 ± 0.048.

GGGGLKVVGGGS: the protein stability index was found to be 0.661 ± 0.032.

In turn, GGGGVGSSGARV showed a protein stability index of 0.644 ± 0.068.

On to GGGGVGTGCQRR, for which the protein stability index stood at 0.668 ± 0.037.

In turn, GGGGVLGVVRVG gave a protein stability index of 0.62 ± 0.033.

Regarding GGGGVWVSWCGW, the protein stability index was found to be 0.679 ± 0.013.

As to GGGHGGVGGGMG, the protein stability index worked out at 0.612 ± 0.057.

For the sequence GGGLSRVEGFGP, the protein stability index was 0.6681 ± 0.0038.

For the sequence GGGLVGVEGGWG, the protein stability index amounted to 0.6732 ± 0.0057.

GGGPGGWGGRGR returned a protein stability index of 0.6449 ± 0.0052.

Turning to GGGPGRCAGGGR, the protein stability index is 0.669 ± 0.024.

Sequence GGGRGEVEGHSG yielded a protein stability index of 0.709 ± 0.013.

Regarding GGGRSASGGWGC, the protein stability index is 0.698 ± 0.024.

On to GGGSGGREPGGS, for which the protein stability index is 0.726 ± 0.027.

GGGSGKSGNLYS gave a protein stability index of 0.687 ± 0.06.

GGGVGGGGVEYG: the protein stability index was determined as 0.638 ± 0.067.

GGGVGGGRAWWR registered a protein stability index of 0.699 ± 0.037.

GGGVGGWGTWVV showed a protein stability index of 0.715 ± 0.1.

As for GGGVGRGGVEYG, the protein stability index is 0.609 ± 0.01.

Sequence GGGVPGGLGREG returned a protein stability index of 0.677 ± 0.043.

Turning to GGGVTRMQQRNG, the protein stability index came to 0.6774 ± 0.002.

With GGGVWGGVFFRL, the protein stability index was found to be 0.647 ± 0.014.

Sequence GGGVWWGGWGHW registered a protein stability index of 0.73 ± 0.061.

In turn, GGGWGERGRGGS came in with a protein stability index of 0.729 ± 0.037.

For GGIGYRRQAAQA, the protein stability index worked out at 0.673 ± 0.068.

As for GGKEEGAGRRGV, the protein stability index stood at 0.69 ± 0.059.

GGKREGEACRQE had a protein stability index of 0.662 ± 0.13.

GGLSELGSGIKC came in with a protein stability index of 0.673 ± 0.0083.

As to GGLVPPLEGLVR, the protein stability index came to 0.677 ± 0.037.

Sequence GGLWPWGRVVCW yielded a protein stability index of 0.687 ± 0.078.

Turning to GGMWGVGRGSVG, the protein stability index amounted to 0.657 ± 0.068.

Sequence GGPSLLEGGAWA showed a protein stability index of 0.6436 ± 0.0023.

For the sequence GGREWWLSDGTV, the protein stability index worked out at 0.75 ± 0.033.

Turning to GGRGGGGEMGGR, the protein stability index was 0.651 ± 0.04.

With GGRGRGGEMGGR, the protein stability index came to 0.722 ± 0.033.

With GGRGVEVAGKGW, the protein stability index is 0.686 ± 0.08.

GGRGWVGEMGGR registered a protein stability index of 0.784 ± 0.053.

Turning to GGRIITIWNRKM, the protein stability index amounted to 0.578 ± 0.069.

The sequence GGRRHQRARLPL had a protein stability index of 0.605 ± 0.018.

In turn, GGRRRPVPQGPR displayed a protein stability index of 0.649 ± 0.091.

GGSGGLGEQGHR: the protein stability index was determined as 0.76 ± 0.051.

The sequence GGSGHGAGAVWG returned a protein stability index of 0.6979 ± 0.0057.

In turn, GGSGVHRHRPFG displayed a protein stability index of 0.666 ± 0.055.

GGSIGTELAAVI had a protein stability index of 0.682 ± 0.054.

Sequence GGSRGGRWGLGE displayed a protein stability index of 0.746 ± 0.087.

GGSRRGLGAAGE had a protein stability index of 0.671 ± 0.022.

As for GGTPIGAHVLLR, the protein stability index was found to be 0.661 ± 0.00077.

In turn, GGVCRARVAETV showed a protein stability index of 0.674 ± 0.0074.

With GGVGGGGREWRR, the protein stability index was determined as 0.683 ± 0.033.

Turning to GGVGGRGREWRR, the protein stability index was found to be 0.7 ± 0.028.

In the case of GGVGGVRLVVSR, the protein stability index is 0.684 ± 0.064.

With GGVGRGVGRGWG, the protein stability index stood at 0.671 ± 0.03.

Take GGVLGNGCGFGR: the protein stability index was 0.784 ± 0.065.

GGVRAAGTGCGG had a protein stability index of 0.642 ± 0.031.

Turning to GGVSGESAVVSV, the protein stability index worked out at 0.649 ± 0.038.

Consider GGVSRLVGRLGG, for which the protein stability index is 0.7055 ± 0.0017.

Turning to GGVVCWACRWEL, the protein stability index is 0.671 ± 0.04.

On to GGVVGWCAGKVV, for which the protein stability index was found to be 0.642 ± 0.071.

For the sequence GGVVSVYCEVSR, the protein stability index came out at 0.625 ± 0.016.

The sequence GGWPWGGFLVDR gave a protein stability index of 0.735 ± 0.012.

Take GGWRGWAGENTR: the protein stability index is 0.699 ± 0.035.

GGWRRDGSLCGA returned a protein stability index of 0.733 ± 0.14.

GGWSIVQKRRGG had a protein stability index of 0.7215 ± 0.0034.

In the case of GGWWVLCGGGWG, the protein stability index worked out at 0.567 ± 0.025.

The sequence GGYGRAGRDVGG showed a protein stability index of 0.655 ± 0.035.

Consider GGYLLAGEGTFA, for which the protein stability index came to 0.702 ± 0.0094.

In turn, GHEQIISIKGIK returned a protein stability index of 0.73 ± 0.049.

Sequence GHVETQTRMASG came in with a protein stability index of 0.789 ± 0.19.

Sequence GIGSHSSSNVNP registered a protein stability index of 0.791 ± 0.094.

Take GIKKNKIKKKKI: the protein stability index was 0.624 ± 0.054.

In turn, GIKRKEKEKKNN showed a protein stability index of 0.615 ± 0.026.

Consider GIMNDMPSLTAT, for which the protein stability index stood at 0.6757 ± 0.0038.

In turn, GISASLRRMTRR registered a protein stability index of 0.623 ± 0.017.

GISLTVTVRGWL had a protein stability index of 0.496 ± 0.019.

GIVFGMRKSDFK returned a protein stability index of 0.764 ± 0.1.

Turning to GIYAWFSGWRKD, the protein stability index came to 0.72 ± 0.015.

In turn, GKAIIIFEQLRR showed a protein stability index of 0.749 ± 0.12.

Take GKEGKGEAGIGE: the protein stability index was determined as 0.686 ± 0.024.

As for GKEQIEKKIEGI, the protein stability index was found to be 0.589 ± 0.009.
